Experimental data: paper PMC3378324

Columns and labels:
[1] = biological target: Nef (Human immunodeficiency virus 1) (UniProt P04324); details: cited from earlier work
[2] = biological target: Fyn(WT)-SH3, 6xHis C-terminal fusion (human) (UniProt P06241); test: ITC
[3] = biological target: Fyn(R96I)-SH3, 6xHis C-terminal fusion (human) (UniProt P06241); test: ITC
Sequence of Fyn(R96I)-SH3, 6xHis C-terminal fusion (human) (P06241 86-143 R96I): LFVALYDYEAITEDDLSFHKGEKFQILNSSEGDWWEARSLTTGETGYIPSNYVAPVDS

Sequence of Fyn(WT)-SH3, 6xHis C-terminal fusion (human) (P06241 85-141): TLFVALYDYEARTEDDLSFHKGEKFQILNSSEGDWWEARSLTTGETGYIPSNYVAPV
Sequence of Fyn SH3 SH3 (P06241 79-146): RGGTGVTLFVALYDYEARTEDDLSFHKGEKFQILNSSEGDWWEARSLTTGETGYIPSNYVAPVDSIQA

| Kd [2] | Kd [3] | Substance | Kd [1] |
| --- | --- | --- | --- |
|  |  | Fyn SH3 SH3 (from UniProt P06241) | > 20 µM |
| 160 µM | 54 µM | ALIXPI peptide (Alix residues 737 to 760) (from UniProt Q8WUM4 737-760) |  |
